Results as given in patent US10662230B2, “Cyclic RGD cell-binding motif and uses thereof” (Spiber Technologies AB, priority 2015, dated 2020).
Positions count from the first letter of the chain named.

B1: FNSS-silk: 4RepCT silk with linear control motif STGRGDSPAS (SEQ ID NO: 11), cysteines substituted for serines (protein)
chain: GPNSSTGRGDSPASGSASGQGGYGGLGQGGYGQGAGSSAAAAAAAAAAAAGGQGGQGQGGYGQGSGGSAAAAAAAAAAAAAAAGRGQGGYGQGSGGNAAAAAAAAAAAAAAAGQGGQGGYGRQSQGAGSAAAAAAAAAAAAAAGSGQGGYGGQGQGGYGQSSASASAAASAASTVANSVSRLSSPSAVSRVSSAVSSLVSNGQVNMAALPNIISNISSSVSASAPGASGCEVIVQALLEVITALVQIVSSSSVGYINPSAVNQITNVVANAMAQVMG
modifications: Fusion protein
B2: FNVS-silk: 4RepCT silk with original fibronectin motif VTGRGDSPAS (SEQ ID NO: 9), linear native control (protein)
chain: B1 chain with S5V
modifications: Fusion protein
B3: RGD-silk: 4RepCT silk with the linear RGD containing peptide (SEQ ID NO 12) of Widhe et al. (2013) (protein)
chain: GPNSRGDAGAASGQGGYGGLGQGGYGQGAGSSAAAAAAAAAAAAGGQGGQGQGGYGQGSGGSAAAAAAAAAAAAAAAGRGQGGYGQGSGGNAAAAAAAAAAAAAAAGQGGQGGYGRQSQGAGSAAAAAAAAAAAAAAGSGQGGYGGQGQGGYGQSSASASAAASAASTVANSVSRLSSPSAVSRVSSAVSSLVSNGQVNMAALPNIISNISSSVSASAPGASGCEVIVQALLEVITALVQIVSSSSVGYINPSAVNQITNVVANAMAQVMG
modifications: Fusion protein

Tests used:
Type in all cases: cell-based
[1] = test system: Normal human epidermal keratinocytes (KC); assay: Early attachment assay, keratinocytes on silk films; details: for adhesion in each individual experiment: KC on tested silk films
Experimental: Normal human epidermal keratinocytes from adult skin (NHEK-ad) were purchased from Lonza. Subculture, proliferation and migration experiments were done in KGM-Gold (Lonza), containing bovine pituitary extract, whereas adhesion experiments were performed in KGM-CD (chemically defined), supplemented with CaCl2) to give 1.2 mM Ca^2+.
Cells were harvested at passage 3-8, seeded at 20 000/cm^2 and allowed to adhere to the films or controls for 1 h in a cell incubator before gentle washing twice with pre-warmed phosphate buffered saline (PBS) followed by 10 min fixation with 96% ethanol. After three washings in water, cells were stained for 30 min with 0.1% Crystal Violet in H2O. Plates were dried after extensive washing in water.
Attachment and morphology of cells bound to the films obtained in Example 3 were documented by taking micrographs at 2× and 10× magnification in an inverted bright field microscope. The color was then dissolved in 40 μL 20% acetic acid for 10 min, and 35 μL of the solution was transferred to a 384-well plate for optical density measurement at 595 nm (TECAN Infinite M200). Wells with cells fixed without pre-washing was used as positive control. Wells with no cells were used as blank. Experiments were run in hexaplicates and repeated three times.
Determination of cell coverage area within a defined region (9.12 mm^2) of the micrographs (at 2× magnification) was done using the software NIS elements BR (Nikon).
After seeing this positive effect of the introduced FNCC motif, we wanted to find out how well the FNCC-silk would compare to native, full length fibronectin, where the RGD is presented on a turn loop constrained by the structure. We therefore used fibronectin from bovine plasma (BFN) to coat cell culture wells, as well as naked cell culture treated plastic (TCT), on which KC can be cultured, as a control. Serum-free experimental conditions was chosen to avoid possible interactions between the matrices and serum proteins that potentially could give rise to increased cell adherence.
For this purpose, we used two FN-silk variants where a linear RGD presentation is expected (FIG. 1a). The first variant (FNVS; SEQ ID NO: 15), contains the original sequence of the RGD-containing motif in fibronectin, to show the effect of the native flanking amino acids without influence of the loop conformation. In the second variant (FNSS; SEQ ID NO: 14), the two flanking cysteines in FNCC were substituted for serine, which resembles cysteine but lacks the —SH-group and is therefore unable to form disulfide bridges. The different FN-silk variants, as well as RGD-silk (SEQ ID NO: 16) and WT-silk (SEQ ID NO: 2), were evaluated with primary KC. Cells were analyzed both for early attachment (FIG. 5), spreading and formation of stress fibers (FIG. 6), and focal adhesions (FIG. 7). Early attachment assay and cellular stainings were performed as detailed in Example 6.

[2] = test system: Normal human epidermal keratinocytes (KC); assay: Formation of focal adhesions (F-actin/vinculin staining), keratinocytes; details: 3 h adherence, 63× magnification
Experimental: Cells were harvested at passage 3-8, seeded at 3500/cm^2 and allowed to adhere onto films for 20 min, 1 or 3 hours in chamber slides. After gentle washing, cells were fixed with 4% paraformaldehyde, permeabilized with 0.1% Triton X-100 in PBS, and blocked with 1% bovine serum albumin (BSA, AppliChem) in PBS.
Primary antibody were used at the following concentrations in 1% BSA: mouse anti human vinculin (Sigma V9131) at 9.5 μg/ml, mouse-anti human beta1-integrin (activated conformation, clone HUTS-4) at 3.3 μg/mL, or mouse-anti human alpha5-integrin (ligand bound conformation, clone SNAKA-51) at 2.5 μg/mL, both Millipore.
Secondary antibody was AlexaFlour488 goat anti mouse IgG (H+L), cross adsorbed (Invitrogen), used at 1:500. Phalloidin-AlexaFluor594 (Life Technologies) were used at 1:40 to detect filamentous actin. DAPI was used for nuclear staining. Slides were mounted in Fluorescence mounting medium (Dako, Copenhagen).
For microscopic analysis of cell adhesion (formation of focal adhesions and stress fibers), a confocal microscope was used (Carl Zeiss LSM 710) at 10× and 63× magnification.
Quality of focal adhesions were graded from 1-4 regarding presence of small and dim focal adhesion (=1p), small and distinct focal adhesions (=2p), abundant focal adhesions (=3p) and large and bright focal adhesions (=4p), and multiplied with the portion of positive cells expressing this specific type of focal adhesions (0-4, where 0≈none of, 1≈one fourth of, 2≈half of, 3≈three fourths of, and 4≈all of the focal adhesion-positive cells.)
Formation of focal adhesions within the cells was analyzed after 3 h by staining for F-actin in combination with vinculin, which is one of the major components of the focal adhesion complex. Co-staining of F-actin and vinculin is thus a sign of integrin-involved, well established binding of cells to the underlying substrate. Focal adhesions appear as yellow-greenish elongations of the F-actin filaments, often situated close to the cell membrane.
The results from the analysis of formation and characterization of focal adhesions in KC after adherence for 3 h onto films of WT-silk (SEQ ID NO: 2) or silk functionalized with FNCC (SEQ ID NO: 13), FNVS (SEQ ID NO: 15), FNSS (SEQ ID NO: 14) or RGD (SEQ ID NO: 16) is presented in FIG. 7. Slides were scanned with a confocal microscope at 10× for overview (FIG. 7a) and at 63× for details (FIG. 7b). Two types of grading of the focal adhesions in the cells were performed.

[3] = test system: Normal human epidermal keratinocytes (KC); assay: Cell spreading by F-actin staining, keratinocytes; details: 3 h adhesion; for spreading of KC (total cell area in 4× micrographs): seeding 3 500/cm^2
Experimental: Cells were harvested at passage 3-8, seeded at 3500/cm^2 and allowed to adhere onto films for 20 min, 1 or 3 hours in chamber slides. After gentle washing, cells were fixed with 4% paraformaldehyde, permeabilized with 0.1% Triton X-100 in PBS, and blocked with 1% bovine serum albumin (BSA, AppliChem) in PBS. Secondary antibody was AlexaFlour488 goat anti mouse IgG (H+L), cross adsorbed (Invitrogen), used at 1:500. Phalloidin-AlexaFluor594 (Life Technologies) were used at 1:40 to detect filamentous actin. DAPI was used for nuclear staining. Slides were mounted in Fluorescence mounting medium (Dako, Copenhagen). The stained cells were analyzed using an inverted microscope (Nikon Eclipse Ti) at 4× and 10× magnification. Excitation at 563/45 nm and detection at 625/50 nm was used for red fluorescence, whereas excitation with 387/11 nm and detection at 447/60 nm was used to monitor blue fluorescence. By staining for F-actin, cell spreading and formation of stress fibers in KC after 3 h adhesion were investigated (FIG. 6).

Row | Molecule | cell coverage area within a defined region (9.12 mm^2) ([1]; KC, 1 h adhesion, comparison with bovine fibronectin coating and TCT plastic, serum-free) | quality (grading) of focal adhesions [2] | cell morphology (F-actin) [3] | spreading of KC (total cell area in 4× micrographs) [3] | adhesion in each individual experiment [1]
1 | BFN: fibronectin from bovine plasma (Sigma-Aldrich F1137), coated at 5 μg/cm^2 [reference compound] | bound equally well to the BFN and the FNCC-silk after 1 h adherence, and importantly both significantly better than TCT | – | – | – | –
2 | B1 | – | both prominent and subtle focal adhesions | a higher proportion of cells with a rounded appearance | but not FNSS or FNVS films, gave a significantly increased spreading of KC compared to RGD-film | varied from being similar to RGD-silk to being only somewhat lower than on FNCC-silk
3 | B2 | – | both prominent and subtle focal adhesions | a higher proportion of cells with a rounded appearance | but not FNSS or FNVS films, gave a significantly increased spreading of KC compared to RGD-film | varied from being similar to RGD-silk to being only somewhat lower than on FNCC-silk
4 | B3 | – | variation of focal adhesion quality is larger in cells on RGD, FNSS and FNVS than on FNCC-silk | a higher proportion of cells with a rounded appearance | – | –
